Experimental data: patent publication US20220153854A1 (Ablynx, published 2022)

How the values were obtained:
[1] = biological target: human IL-13 (human, UniProt P35225 35-146, limits assumed); test: cell-based or functional assay
[2] = biological target: T1, cyno IL-13 (cynomolgus monkey, UniProt Q0PW92 21-132); test: cell-based or functional assay
[3] = biological target: rhesus IL-13 (rhesus monkey, UniProt Q864V6 19-132, limits assumed); test: cell-based or functional assay
[4] = biological target: T2, membrane bound human OX40L on CHO-KI cells (human, UniProt P23510 1-183); test: cell-based or functional assay
T2 sequence (looked up): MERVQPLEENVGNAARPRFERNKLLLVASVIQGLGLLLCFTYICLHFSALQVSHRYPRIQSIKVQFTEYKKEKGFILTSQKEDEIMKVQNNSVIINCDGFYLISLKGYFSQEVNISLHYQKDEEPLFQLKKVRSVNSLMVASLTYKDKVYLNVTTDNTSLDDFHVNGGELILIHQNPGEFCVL

[5] = biological target: T3, membrane bound cyno OX40L on CHO-KI cells (cynomolgus monkey, UniProt G7NVH7 1-183); test: cell-based or functional assay
T3 sequence: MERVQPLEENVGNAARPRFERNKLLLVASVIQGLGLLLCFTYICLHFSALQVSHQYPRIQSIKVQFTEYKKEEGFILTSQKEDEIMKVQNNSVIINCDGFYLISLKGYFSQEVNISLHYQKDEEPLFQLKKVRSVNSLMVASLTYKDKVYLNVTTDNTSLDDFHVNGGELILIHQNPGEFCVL

[6] = biological target: T4, human serum albumin (human, UniProt P02768 25-609); test: Gyrolab in-solution affinity, 2 h incubation; 95% CI 5.5-7.6 nM
T4 construct: also called HSA; HAS
Protocol: (§1) Under receptor-controlled measurements a serial dilution of OX40L (ranging from 1.3 μM-0.031 μM), IL-13 (ranging from 0.1 μM-0.25 fM), or serum albumin (ranging from 100 μM-3.2 μM) and a fixed amount of ISVD construct F027100187 (5 nM in case of OX40L, […] in case of IL-13 and 30 nM in case of HSA and cyno SA) were mixed to allow interaction and incubated for either 24 or 48 hours (in case of OX40L and IL-13) or 2 hours (in case of serum albumin) to reach equilibrium.
(§2) Biotinylated human OX40L/IL-13/serum albumin was captured in the microstructures of a Gyrolab Bioaffy 1000 CD, which contains columns of beads and was used as a molecular probe to capture free F027100187 from the equilibrated solution. The mixture of OX40L/IL13/serum albumin and F027100187 (containing free OX40UIL-13/serum albumin, free F027100187 and OX40L/IL13/serum albumin—F027100187 complexes) was allowed to flow through the beads, and a small percentage of free F027100187 was captured, which is proportional to the free ISVD construct concentration. A fluorescently labeled anti-ISVD antibody, ABH0086-Alexa647, was then injected to label any captured F027100187 and after rinsing away excess of fluorescent probe, the change in fluorescence was determined. Fitting of the dilution series was done using Gyrolab Analysis software, where KD- and receptor-controlled curves were analyzed to determine the KD value.

[7] = biological target: T4, human serum albumin; test: Gyrolab in-solution affinity, 2 h incubation; 95% CI 6.7-8.9 nM
Protocol: as §1, §2

[8] = biological target: T5, human OX40L (human, UniProt P23510 51-183); test: Gyrolab in-solution affinity, 48 h incubation; 95% CI 98-120 pM
T5 construct: Protein in solution or immobilised (SPR, Gyrolab); construct not described; also called huOX40L; hOX40L
T5 sequence (looked up): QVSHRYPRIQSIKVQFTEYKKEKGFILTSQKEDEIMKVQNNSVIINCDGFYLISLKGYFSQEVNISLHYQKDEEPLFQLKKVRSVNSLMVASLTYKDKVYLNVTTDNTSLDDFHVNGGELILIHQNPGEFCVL
Protocol: as §1, §2

[9] = biological target: T6, cyno OX40L (cynomolgus monkey, UniProt G7NVH7 51-183); test: Gyrolab in-solution affinity, 48 h incubation; 95% CI 225-326 pM
T6 construct: also called cyOX40L; cynomolgus monkey OX40L
T6 sequence: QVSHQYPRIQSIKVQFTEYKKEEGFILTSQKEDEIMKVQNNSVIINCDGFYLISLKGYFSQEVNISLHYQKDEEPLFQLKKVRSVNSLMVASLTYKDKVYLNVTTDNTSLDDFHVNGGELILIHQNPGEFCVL
Protocol: as §1, §2

[10] = biological target: T1, cyno IL-13; test: Gyrolab in-solution affinity, 48 h incubation; 95% CI 4.7-7.1 pM
Protocol: as §1, §2

[11] = biological target: T1, cyno IL-13; test: Gyrolab in-solution affinity, 48 h incubation; 95% CI 9.5-13.9 pM
Protocol: as §1, §2

[12] = biological target: T5, human OX40L; test: Gyrolab in-solution affinity, 24 h incubation; 95% CI 64.7-91.0 pM
Protocol: as §1, §2

[13] = biological target: T3, membrane bound cyno OX40L on CHO-KI …; test: flow cytometry on fixed CHO-KI cells expressing cyno OX40L, 48 h incubation
Protocol: (§3) Briefly, cells were fixed with 4% paraformaldehyde and 0.1% Glutaraldehyde in PBS, seeded at a density of 1×10⁴ cells/well and incubated with a dilution series of ISVD F027100187 or reference compound anti-hOX40L mAb, named Comparator 3, starting from 100 nM […] 0.5 μM, for 48 hours at room temperature. Comparator 3 is a standard conventional monoclonal antibody directed against human OX40L, which is used as a reference throughout the Examples 1 to 12 described herein. Cells were washed 3 times and subsequently incubated with an anti-VHH mAb (ABH00119) for 30 min at 4° C., washed again, and incubated for 30 min at 4° C. with a goat anti-mouse PE or FITC labeled antibody. Samples were washed and resuspended in FACS Buffer (D-PBS with 10% FBS and 0.05% sodium azide supplemented with 5 nM TOPRO3). Cell suspensions were then analyzed on an iQuescreener. EC50 values were calculated using GraphPad Prism.

[14] = biological target: T2, membrane bound human OX40L on CHO-KI …; test: flow cytometry on fixed CHO-KI cells expressing human OX40L, 48 h incubation
Protocol: as §3

T1 sequence (Q0PW92 entry or part of it): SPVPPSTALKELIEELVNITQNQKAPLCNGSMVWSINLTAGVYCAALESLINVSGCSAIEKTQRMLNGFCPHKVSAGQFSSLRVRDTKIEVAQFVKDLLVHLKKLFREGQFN
T4 sequence (P02768 25-609 limits assumed): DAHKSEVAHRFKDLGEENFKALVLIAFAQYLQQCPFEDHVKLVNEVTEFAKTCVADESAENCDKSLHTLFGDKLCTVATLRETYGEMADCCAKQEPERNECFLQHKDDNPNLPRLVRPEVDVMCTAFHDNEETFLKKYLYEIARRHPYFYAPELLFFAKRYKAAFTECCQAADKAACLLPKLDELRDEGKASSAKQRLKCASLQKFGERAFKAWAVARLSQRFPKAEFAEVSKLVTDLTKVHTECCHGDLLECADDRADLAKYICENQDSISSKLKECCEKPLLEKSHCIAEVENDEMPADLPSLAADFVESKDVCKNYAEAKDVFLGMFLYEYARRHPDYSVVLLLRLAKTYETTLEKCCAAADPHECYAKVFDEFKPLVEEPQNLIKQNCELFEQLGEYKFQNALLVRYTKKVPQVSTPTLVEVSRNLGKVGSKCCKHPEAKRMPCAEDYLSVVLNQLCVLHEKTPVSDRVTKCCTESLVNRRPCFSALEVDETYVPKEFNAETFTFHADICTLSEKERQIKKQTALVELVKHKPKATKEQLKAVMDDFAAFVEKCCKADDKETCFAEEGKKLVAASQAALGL
Sequence of human IL-13 (P35225 35-146 limits assumed): as the sequence (Q0PW92 entry or part of it) above, with S1G, K10R, V42M, N67S, R83H, V100L counted along it
Sequence of rhesus IL-13 (Q864V6 19-132 limits assumed): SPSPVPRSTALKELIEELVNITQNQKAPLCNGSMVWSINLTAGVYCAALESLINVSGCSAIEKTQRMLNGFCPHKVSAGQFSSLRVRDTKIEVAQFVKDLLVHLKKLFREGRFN

B1: ISVD construct F027100187 (other)
chain: DVQLVESGGGVVQPGGSLRLSCAASRSIGRYDRMGWYRHRPGEPRELVATITGGSSINYGDSVKGRFTISIDNSKNTVYLQMNSLRPEDTALYYCNFNKYQISRDTWGQGTLVTVSSGGGGSGGGSEVQLVESGGGVVQPGGSLRLSCAASGRTFSSYRMGWFRQAPGKEREFVAALSGDGYSTYTANSVKGRFTISRDNSKNTVYLQMNSLRPEDTALYYCAAKLQYVSGWSYDYPYWGQGTLVTVSSGGGGSGGGSEVQLVESGGGVVQPGGSLRLSCAASGFTFRSFGMSWVRQAPGKGPEWVSSISGSGSDTLYADSVKGRFTISRDNSKNTLYLQMNSLRPEDTALYYCTIGGSLSRSSQGTLVTVSSGGGGSGGGSEVQLVESGGGVVQPGGSLRLSCAASGFTFNNYAMKWVRQAPGKGLEWVSSITTGGGSTDYADSVKGRFTISRDNSKNTLYLQMNSLRPEDTALYYCANVPFGYYSEHFSGLSFDYRGQGTLVTVSSA
notes: Tetravalent, trispecific single-chain construct of four VHH (ISVD) domains: one against OX40L, two against IL-13, one against serum albumin; also called F0271000187; F27100187
eotaxin release assay (IC50, pM) [1]: 259 pM
eotaxin release assay (IC50, pM) [2]: 1940 pM
eotaxin release assay (IC50, pM) [3]: 858 pM
PBMC activity assay IC50 [4]: 1900 pM
PBMC activity assay IC50 [5]: 14000 pM
Kd [6]: 6600 pM
Kd [7]: 7800 pM
Kd [8]: 109 pM
Kd [9]: 275 pM
Kd [10]: 5.9 pM
Kd [11]: 11.7 pM
Kd [12]: 77.8 pM
EC50 [13]: 36.3 pM
EC50 [14]: 23.5 pM
